Laboratory results published in PMC6656783, “ABCE1 Controls Ribosome Recycling by an Asymmetric Dynamic Conformational Equilibrium” (Cell Reports, 2019).

Assays:
ABCE1 = target: T1, ABCE1 (Saccharolobus solfataricus, UniProt Q980K5, K177C/T393C); experiment: malachite green ATPase assay; format: biochemical; details: site II variant, before and after Cy3B/Atto647N labelling of the protein; 5 mM ATP, 10 mM MgCl2, pH 7.5, 80 °C
T1 construct: gene SSO0287; full length with N-terminal FeS cluster domain, C-terminal His6 tag, pSA4 vector, expressed in E. coli BL21(DE3) pRARE; about 70 kDa

[1] = target: 30S ribosomal subunit from Sulfolobus solfataricus (Sulfolobus solfataricus); experiment: burst-length (diffusion) analysis in single-molecule ALEX/smFRET; titration of 30S; percentage of 30S-bound ABCE1 at each concentration; 2 mM AMP-PNP, 73°C, 10 min
[2] = target: 30S ribosomal subunit from Sulfolobus solfataricus (Sulfolobus solfataricus); experiment: dissociation time course by burst-length analysis in single-molecule ALEX/smFRET; 30 nM labelled ABCE1 with 25 μM AMP-PNP and 12.5 μM 30S, 73°C 10 min; then 630-fold dilution with 2 μM unlabelled ABCE1, dissociation followed at 73°C for 0-10 min; the association rate is estimated from this rate and the KD

Compound	malachite green ATPase assay (ABCE1)	Kd [1]	koff [2]	kon [2]
Nc1ncnc2c1ncn2[C@@H]1O[C@H](COP(=O)(O)OP(=O)(O)OP(=O)(O)O)[C@@H](O)[C@H]1O [ATP]	verified by determining the basal ATP hydrolysis, which was similar to the wild type			
ABCE1^K177C/T393C (site II variant), labelled with Cy3B and Atto647N (enzyme)		20 nM	0.00833 s⁻¹	400000 M⁻¹ s⁻¹
